System: Lenti-X 293T cells
Assay: YFP fluorescence quenching anion reporter plate reader assay of engineered receptors stimulated with acetylcholine or a non-native ligand
Type: cell-based
Source text: To screen these mutant LGICs for those having novel response profiles to ligands, an anion reporter assay was developed to assess the function of the LGICs in a high throughput format. In this assay, cells expressing a YFP reporter whose fluorescence is quenched in the presence of anion are transfected with DNA encoding the channel of interest. Upon exposure to ligand, channels that are activated will flux anion, resulting in a dose-dependent quench of the YFP that can be detected on a plate reader. The greater the quench signal (i.e., the more positive the value), the higher the ligand activity on the receptor is.
Lenti-X 293T cells (LX293T, Clontech) were maintained in DMEM containing 10% FBS and 1% penicillin/streptomycin (Invitrogen). […] Two days before assay, cells were split at a density of 20,000 cells/well in a 96-well tissue culture plate coated with poly-d lysine (Thermo Scientific). The next day, the cells were transiently transfected with 0.1 μg of DNA per well using standard Fugene protocol (Promega). On the day of assay, cells were washed 2 times in 1× extracellular solution (1×ECS: 140 mM NaCl, 5 mM KCl, 1 mM MgCl2, 2 mM CaCl2), 10 mM HEPES, 10 mM glucose, pH 7.2, mOsms 300). After the last wash, 100 μL of 1×ECS was added to the wells and the plate was incubated at 37° C. for 30 min. While incubating the plate, the drugs were diluted to a 2× concentration in 1×ECS-NaI (same components as 1×ECS except the 140 mM NaCl was replaced by 140 mM NaI). The plates were then read on a Flexstation3 (Molecular Devices). Each well, 8 wells at a time, of the plate is read for 2 min using a Flexstation3 (Molecular Devices) as follows: 1) a baseline YFP fluorescence is read for 17 sec, 2) 100 μL of ligand is added, and 3) the changes in YFP fluorescence are then measured every 1.3 sec for 1 minute and 43 seconds. The percent quench is calculated from the average fluorescence of the last 10 seconds of the read divided by the baseline average of the first 15 seconds prior to the ligand addition.
FIGS. 1A-1J provide heat maps of the percent quench of YFP fluorescence following stimulation by various doses of either acetylcholine or the non-native ligand as indicated in the Figures. CODA71 (SEQ ID NO: 33) was used as a control, and CODA75 (SEQ ID NO: 29, a non-responding chimeric engineered receptor) was used as the negative control. Quenching of the fluorescence signal, as indicated by blue shaded cells, indicate the level of engineered receptor activation by the non-native ligand at that concentration.

B1: CODA334: engineered chimeric LGIC receptor, L131Q in SEQ ID NO: 33 (protein)
chain: MRCSPGGVWLALAASLLHVSLQGEFQRKLYKELVKNYNPLERPVANDSQPLTVYFSLSLLQIMDVDEKNQVLTTNIWLQMSWTDHYLQWNVSEYPGVKTVRFPDGQIWKPDILLYNSADERFDATFHTNVQVNSSGHCQYLPPGIFKSSCPMDLKNFPMDVQTCKLKFGSWSYGGWSLDLQMQEADISGYIPNGEWDLVGIPGKRSERFYECCKEPYPDVTFTVTMRRRMGYYLIQMYIPSLLIVILSWISFWINMDAAPARVGLGITTVLTMTTQSSGSRASLPKVSYVKAIDIWMAVCLLFVFSALLEYAAVNFVSRQHKELLRFRRKRRHHKSPMLNLFQEDEAGEGRFNFSAYGMGPACLQAKDGISVKGANNSNTTNPPPAPSKSPEEMRKLFIQRAKKIDKISRIGFPMAFLIFNMFYWIIYKIVRREDVHNQ
modifications: synthetic sequence of chimeric LGIC
For B1, the “YFP fluorescence quenching using CNL001” value (1 nM CNL001, first column) was 76.165%, the “YFP fluorescence quenching using CNL001” value (1 nM CNL001, second column) was 78.463% and the “YFP fluorescence quenching using TC-5619/Bradanicline” value (3 nM brd) was 41.92%. The “YFP fluorescence quenching using Varenicline” value (3 nM var, first column) was −5.192, the “YFP fluorescence quenching using Varenicline” value (3 nM var, second column) was −4.327 and the “YFP fluorescence quenching using CNL001” value (10 nM CNL001, first column) was 79.349%. The “YFP fluorescence quenching using CNL001” value (10 nM CNL001, second column) was 78.238%, the “YFP fluorescence quenching using TC-5619/Bradanicline” value (30 nM brd) was 63.65% and the “YFP fluorescence quenching using Facinicline” value (30 nM fac) was 83.07. The “YFP fluorescence quenching using Varenicline” value (30 nM var, first column) was −0.688, the “YFP fluorescence quenching using Varenicline” value (30 nM var, second column) was 0.672 and the “YFP fluorescence quenching using CNL001” value (50 nM CNL001, first column) was 80.221%. For the same molecule, the “YFP fluorescence quenching using CNL001” value (50 nM CNL001, second column) was 81.789%, the “YFP fluorescence quenching using ABT-126” value (50 nM abt) was 23.65% and the “YFP fluorescence quenching using CNL001” value (100 nM CNL001, first column) was 82%. The “YFP fluorescence quenching using CNL001” value (100 nM CNL001, second column) was 80.766%, the “YFP fluorescence quenching using CNL002” value (100 nM CNL002) was 49.9% and the “YFP fluorescence quenching using ABT-126” value (100 nM abt) was 61.83%. For the same molecule, the “YFP fluorescence quenching using AZD-0328” value (100 nM azd0328) was 80.55%, the “YFP fluorescence quenching using Facinicline” value (100 nM fac) was 85.36 and the “YFP fluorescence quenching using ABT-126” value (300 nM abt) was 76.44%. For the same molecule, the “YFP fluorescence quenching using AZD-0328” value (300 nM azd0328) was 83.15%, the “YFP fluorescence quenching using TC-5619/Bradanicline” value (300 nM brd) was 64.85% and the “YFP fluorescence quenching using Facinicline” value (300 nM fac) was 84.19. The “YFP fluorescence quenching using Varenicline” value (300 nM var, first column) was 75.189, the “YFP fluorescence quenching using Varenicline” value (300 nM var, second column) was 74.923 and the “YFP fluorescence quenching using Varenicline” value (500 nM var, first column) was 79.048. The “YFP fluorescence quenching using Varenicline” value (500 nM var, second column) was 80.337, the “YFP fluorescence quenching using CNL001” value (1 uM CNL001, first column) was 81.707% and the “YFP fluorescence quenching using CNL001” value (1 uM CNL001, second column) was 82.665%. The “YFP fluorescence quenching using CNL002” value (1 uM CNL002) was 80.72%, the “YFP fluorescence quenching using ABT-126” value (1 uM abt) was 77.68% and the “YFP fluorescence quenching using TC-6987” value (1 uM tc6987) was 74.1. The “YFP fluorescence quenching using Varenicline” value (1 uM var, first column) was 79.766, the “YFP fluorescence quenching using Varenicline” value (1 uM var, second column) was 76.836 and the “YFP fluorescence quenching using TC-6987” value (10 uM tc6987) was 81.7. For the same molecule, the “YFP fluorescence quenching using CNL002” value (30 uM CNL002) was 80.97%, the “YFP fluorescence quenching using AZD-0328” value (30 uM azd0328) was 82.53% and the “YFP fluorescence quenching using Facinicline” value (30 uM fac) was 82.75. For the same molecule, the “YFP fluorescence quenching using TC-6987” value (500 uM tc6987) was 80.18, the “percent quench of YFP fluorescence, 30 nM TC-6683” value (TC-6683 30 nM) was −17.99% and the “percent quench of YFP fluorescence, 300 nM TC-6683” value (TC-6683 300 nM) was −23.26%. The “percent quench of YFP fluorescence, 3 uM TC-6683” value (TC-6683 3 uM) was −18.84%, the “percent quench of YFP fluorescence, 30 uM TC-6683” value (TC-6683 30 uM) was −16.92% and the “percent quench of YFP fluorescence, 100 uM TC-6683” value (TC-6683 100 uM) was −15.59%. For the same molecule, the “percent quench of YFP fluorescence, 10 uM ach” value (acetylcholine 10 uM) was −2.63%, the “percent quench of YFP fluorescence, 30 uM ach” value (acetylcholine 30 uM) was 30.06% and the “percent quench of YFP fluorescence, 100 uM ach” value (acetylcholine 100 uM) was 71.27%. For the same molecule, the “percent quench of YFP fluorescence, 1 mM ach” value (acetylcholine 1 mM) was 79.66% and the “percent quench of YFP fluorescence, 3 mM ach” value (acetylcholine 3 mM) was 74.9%.
